What was measured:
[1] = system: humanized ANGPTL4 mice; test: Serum TG, H4H268P2 and fenofibrate alone or in combination; assay type: in vivo, mouse; conditions: day 7; H4H268P2 10 mg/kg s.c. day 0; fenofibrate 0.05% (w/w) in chow
Description: The effects of the anti-ANGPTL4 antibody H4H268P2 and TG-reducing drug fenofibrate, each alone or in combination, on serum TG levels were evaluated in humanized ANGPTL4 mice. The mice were pre-bled 7 days before the experiment after 4 hours of fasting and put into 4 groups of six mice each. Groups 2 and 4 were administered with H4H268P2 at 10 mg/kg by subcutaneous injection on day 0 and groups 1 (control group) and 2 were placed on regular chow diet. Groups 3 and 4 received chow diet supplemented with 0.05% (w/w) of fenofibrate (the dosage level was determined experimentally in a pilot study). Serum was collected from a terminal bleed on day 7 after H4H268P2 and/or fenofibrate administration (after 4 hours of fasting) and analyzed by ADVIA® 1800 Chemistry System (Siemens).

[2] = system: obese rhesus monkeys (Macaca mulatta); test: Phase II pilot PK/PD study in obese rhesus monkeys; assay type: in vivo, rhesus monkey (Macaca mulatta); conditions: 10 mg/kg IV
Description: Phase II: In the second non-GLP pharmacokinetics/pharmacodynamic (PK/PD) study only H4H268P2 was administered as a single bolus intravenous (IV) injection to eight obese rhesus monkeys (Macaca mulatta). The step of pre-dosing vehicle injection was omitted in this study. Three baseline assessments were taken at days −7, −3 and 0 of the study and all eight monkeys received H4H268P2 at 10 mg/kg by IV on day 0. Serum samples were collected from the baseline period through day 35 post-dosing and assessed for serum lipid levels by ADVIA® 1800 Chemistry System (Siemens). Animals were grouped for data analysis according to average baseline TG levels so as to prospectively predict the effect: A. TG<150 mg/dL (n=3); B. 150 mg/dL<TG<500 mg/dL (n=4); and C. TG>1000 mg/dL (n=1).

[3] = Pharmacokinetic clearance in wild-type and hANGPTL4(+/+) mice, sandwich ELISA; assay type: in vivo, mouse; conditions: 1 mg/kg s.c.
Description: Pharmacokinetic clearance rates of anti-hANGPTL4 antibodies H4H268P2 and H4H284P were determined in wild-type mice and in transgenic mice expressing human ANGPTL4 [hANGPTL4(+/+) mice]. The strain background for both wild-type and transgenic mice was C57BL6 (75%) and 129Sv (25%). Separate cohorts consisting of 5 mice each of either wild-type or hANGPTL4(+/+) mice received subcutaneously (s.c.) 1 mg/kg of H4H268P2, H4H284P, or an isotype-matched (hIgG4) control with irrelevant specificity. Blood samples were collected at 0 hour, 6 hours, 1 day, 2 days, 3 days, 4 days, 7 days, 10 days, and 15 days, 22 days, and 30 days after the injection. Serum levels of human antibodies were determined by a sandwich ELISA. Briefly, a goat polyclonal anti-human IgG (Fc-specific) capture antibody (Jackson ImmunoResearch, PA) was coated in 96-well plates at a concentration of 1 μg/mL and incubated overnight at 4° C. After the plates were blocked with BSA, serum samples in a six-point serial dilution and reference standards of the respective antibody in a twelve-point serial dilution were added to the plate and incubated for one hour at room temperature. After washing with a suitable washing buffer, captured human antibodies were detected using the same goat polyclonal anti-human IgG (Fc-specific) antibody conjugated with horse radish peroxidase (HRP) (Jackson ImmunoResearch, PA) and developed by standard colorimetric response using tetramethylbenzidine (TMB) substrate, measuring absorbance at 450 nm in a plate reader. Concentrations of human antibodies in serum were determined using the reference standard curve generated for the same sample plate.

[4] = animals with baseline 150 mg/dL<TG<500 mg/dL

B1: H4H268P2: IgG4 version of H1H268P with a single amino acid substitution in framework region 1, HCVR/LCVR SEQ ID NOs 487/44 (antibody, V domains shown)
VH: QVQLQQSGAGLLKPSETLSLTCTVYGGSFSIHHWTWIRHPPGKGLEWIGEINHRGSTNYNPSLKSRVTISIDTSKNQFSLKLSAVTAADTAVYYCARGLRFLDWLSSYFDYWGQGTLVTVSS
VL: DIQMTQSPSSLSASVGDRVTITCRASQGISDYLAWYQQKPGKVPNLLIYAASALQSGVPSRFSGSGSGTDFTLTISSLQPEDVATYYCQNYNTAPLTFGGGTKVEIK
modifications: IgG4 constant region
- TG levels reduced (mean) compared to control group on chow diet [1]: ~40%
- HDL-C, in words [2, 4]: increased
- LDL-C or Total-C, in words [2, 4]: no effect
- decrease in TG levels from baseline [2, 4]: 50-68%
- response of fasting TG, in words ([2]; animals with baseline TG<150 mg/dL (normal TG levels)): largely unresponsive
- TG level, in words ([2]; individual animal with baseline TG >1000 mg/dL): dramatic and rapid drop in TG level
- Cmax ([3]; Wild-type mice): 18400 ng/mL
- Cmax ([3]; hANGPTL4(+/+) mice): 13300 ng/mL
- AUC ([3]; hANGPTL4(+/+) mice, over the 30-day period): 37000 ng·h/mL

From patent US9120851B2, “Human antibodies to human angiopoietin-like protein 4” (Regeneron Pharmaceuticals, Inc., priority 2009, dated 2015)
